The values that follow are results of earlier work, collected in publication PMC5298935.

In series [1] the target is IRAK1 p144 peptide 140-149 (Homo sapiens) (UniProt P51617). Briefly: NMR titration.
The target of series [2] is IRAK1 p173 peptide 157-180 (Homo sapiens) (UniProt P51617). Briefly: NMR titration.
Series [3] concerns the target IRAK1 p131 peptide UD (Homo sapiens) (UniProt P51617). Put plainly: NMR.
In series [4] the target is IRAK1 p144 peptide UD (Homo sapiens) (UniProt P51617). Briefly: NMR.
Series [5] addresses IRAK1 p173 peptide UD (Homo sapiens) (UniProt P51617). Put plainly: NMR.

Pin1 WW, sequence (Q13526 2-42): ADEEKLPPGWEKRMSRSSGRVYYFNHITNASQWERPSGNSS
Pin1 WW domain 1-50, sequence (Q13526 1-50): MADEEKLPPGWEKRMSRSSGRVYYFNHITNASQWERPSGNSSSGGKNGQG
IRAK1 p131 peptide UD (Homo sapiens), sequence (P51617 whole entry, looked up, tested part not stated): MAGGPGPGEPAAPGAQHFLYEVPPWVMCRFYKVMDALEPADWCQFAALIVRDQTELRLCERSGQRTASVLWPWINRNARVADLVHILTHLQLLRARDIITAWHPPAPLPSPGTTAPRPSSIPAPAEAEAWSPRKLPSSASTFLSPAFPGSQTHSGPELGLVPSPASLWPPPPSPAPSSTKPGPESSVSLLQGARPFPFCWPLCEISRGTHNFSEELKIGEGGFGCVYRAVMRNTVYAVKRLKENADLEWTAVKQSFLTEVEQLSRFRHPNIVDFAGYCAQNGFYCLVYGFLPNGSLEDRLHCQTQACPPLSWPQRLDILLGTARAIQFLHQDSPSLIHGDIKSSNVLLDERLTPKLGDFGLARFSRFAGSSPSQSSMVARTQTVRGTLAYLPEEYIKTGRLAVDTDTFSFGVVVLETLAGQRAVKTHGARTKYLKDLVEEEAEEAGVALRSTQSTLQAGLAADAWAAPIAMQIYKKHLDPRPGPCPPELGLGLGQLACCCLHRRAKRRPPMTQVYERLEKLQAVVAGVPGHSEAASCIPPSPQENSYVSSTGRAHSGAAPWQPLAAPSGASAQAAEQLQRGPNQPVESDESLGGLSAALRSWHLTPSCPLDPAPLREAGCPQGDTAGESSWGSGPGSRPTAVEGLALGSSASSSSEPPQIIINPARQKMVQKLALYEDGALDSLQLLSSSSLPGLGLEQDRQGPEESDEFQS
IRAK1 p144 peptide UD (Homo sapiens), sequence (P51617 whole entry, looked up, tested part not stated): as above
IRAK1 p173 peptide UD (Homo sapiens), sequence (P51617 whole entry, looked up, tested part not stated): as above
IRAK1 p144 peptide 140-149 (Homo sapiens), sequence (P51617 whole entry, looked up, tested part not stated): as above
IRAK1 p173 peptide 157-180 (Homo sapiens), sequence (P51617 157-180): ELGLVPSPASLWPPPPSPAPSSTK

Usually Kd stands for the constant that tells how readily two partners part at equilibrium. Consider “Pin1 WW domain 1-50 (from UniProt Q13526)”, for which the Kd in series [1] was 120 µM; in series [2], 260 µM.

Pin1 WW (from UniProt Q13526): the Kd is 220 µM in series [3], 120 µM in series [4] and 260 µM in series [5].
